Laboratory results reported in paper PMC3155532.

Experiments:
Conditions in all cases: remark: other sources report otherwise
[1] = biological target: 3xflag-LRRK2 (leucine rich repeat kinase 2), wild type (UniProt Q5S007); experiment: SEC; purified 3xflag-LRRK2 (flag-M2 beads, eluted with 3xflag peptide), Superose 6 10/300 GL, 4°C, SEC running buffer with 10 µM GDP or GTPγS; fractions read by flag-M2 dot blot; higher molecular weight peaks also seen
[2] = biological target: 3xflag-LRRK2 (leucine rich repeat kinase 2), wild type (UniProt Q5S007); experiment: SEC; cleared HEK293T cell lysates expressing 3xflag-LRRK2, Superose 6 10/300 GL, 4°C, SEC running buffer (25 mM Tris pH 7.4, 150 mM NaCl, 5 mM MgCl2, 0.02% Triton, 1 mM DTT) with 10 µM GDP or GTPγS; fractions read by flag-M2 dot blot
[3] = biological target: 3xflag-LRRK2 (leucine rich repeat kinase 2), wild type (UniProt Q5S007); experiment: native gel or EMSA; native PAGE of 3xflag-LRRK2 purified from lysates treated with GDP, GTPγS or GMPPCP (10, 100 and 500 µM, 30 minutes at 30°C); silver stain and flag-M2 immunoblot

stoichiometry N [1]: 2 | stoichiometry N [2]: 2 | stoichiometry N [3]: 2
Substance: 3xflag-LRRK2 (leucine rich repeat kinase 2), wild type, Q5S007 1-2527
